Laboratory results taken from PMC3305813 (Neuron, 2012).

T1: recombinant CYSL-1 (C. elegans, UniProt Q93244 1-341)
T1 sequence (looked up): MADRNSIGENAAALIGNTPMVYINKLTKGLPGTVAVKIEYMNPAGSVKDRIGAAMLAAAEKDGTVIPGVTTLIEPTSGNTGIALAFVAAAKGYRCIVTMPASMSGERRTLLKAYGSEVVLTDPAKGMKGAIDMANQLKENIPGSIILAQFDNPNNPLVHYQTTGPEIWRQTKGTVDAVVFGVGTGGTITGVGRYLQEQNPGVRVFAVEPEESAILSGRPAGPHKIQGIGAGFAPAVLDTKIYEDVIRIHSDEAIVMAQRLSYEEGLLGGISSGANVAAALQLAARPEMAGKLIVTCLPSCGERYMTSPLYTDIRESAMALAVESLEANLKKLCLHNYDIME


Columns and labels:
CYSL-1 = CYSL-1 (Caenorhabditis elegans, UniProt Q93244, R259K); assay: O-acetylserine sulfhydrylase assay; format: biochemical; conditions: co-substrate sulfide
CYSL-1, sequence (Q93244 whole entry R259K): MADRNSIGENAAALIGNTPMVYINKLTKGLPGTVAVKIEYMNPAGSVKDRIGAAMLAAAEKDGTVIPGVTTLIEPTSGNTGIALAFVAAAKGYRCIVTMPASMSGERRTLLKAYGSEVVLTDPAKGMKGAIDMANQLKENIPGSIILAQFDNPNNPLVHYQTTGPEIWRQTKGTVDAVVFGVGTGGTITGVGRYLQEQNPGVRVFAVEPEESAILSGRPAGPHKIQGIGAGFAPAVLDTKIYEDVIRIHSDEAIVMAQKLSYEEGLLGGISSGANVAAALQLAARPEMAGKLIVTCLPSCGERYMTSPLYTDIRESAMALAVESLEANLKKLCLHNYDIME

recombinant CYSL-1 = target: T1, recombinant CYSL-1; assay: other fluorescence titration

Molecule	O-acetylserine sulfhydrylase assay (CYSL-1)	binding result (recombinant CYSL-1)
CC(=O)OC[C@H](N)C(=O)O [OAS]	exhibited levels of OAS sulfhydrylase activity similar to that of wild-type CYSL-1	
PPSTNPEYYI (peptide, UniProt G5EBV0 714-723, looked up) [EGL-9 C-terminal peptide, last 10 residues]		binds
GLPPPPSTNPEYYI (peptide, UniProt G5EBV0 710-723, looked up) [EGL-9 C-terminal peptide, last 14 residues]		binds
